Measured values from US12098206B2, “PDGF receptor antibody and use thereof” (Seoul National University R&DB Foundation, priority 2018, dated 2024).

T1: mPDGFR-β (Mus musculus, UniProt P05622)
T1 construct: mPDGFR-β
T1 sequence (P05622 32-530): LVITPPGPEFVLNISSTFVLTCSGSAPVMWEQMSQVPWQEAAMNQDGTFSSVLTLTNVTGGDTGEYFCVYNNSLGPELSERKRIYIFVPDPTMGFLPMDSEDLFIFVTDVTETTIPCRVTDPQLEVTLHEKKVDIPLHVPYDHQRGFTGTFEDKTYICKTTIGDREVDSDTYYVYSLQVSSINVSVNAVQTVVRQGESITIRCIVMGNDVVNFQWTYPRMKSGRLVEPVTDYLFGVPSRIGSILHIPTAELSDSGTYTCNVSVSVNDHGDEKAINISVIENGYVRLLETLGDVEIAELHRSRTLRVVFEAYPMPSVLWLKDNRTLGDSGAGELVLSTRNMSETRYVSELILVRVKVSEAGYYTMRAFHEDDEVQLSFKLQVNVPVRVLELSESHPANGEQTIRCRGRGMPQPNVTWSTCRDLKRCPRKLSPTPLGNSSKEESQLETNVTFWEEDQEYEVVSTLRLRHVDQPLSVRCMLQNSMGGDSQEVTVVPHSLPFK


Tests used:
[1] = biological target: T2, NIH3T3 cells expressing mPDGFR-β (Mus musculus, UniProt P05622); test: Flow cytometry competition against PRb-CN01-rabbit Fc on NIH3T3 cells; type: binding; conditions: PRb-CN01-rabbit Fc 50 nM, competitor 1 μM, FIG. 19b
T2 construct: host or cells: NIH3T3
T2 sequence (P05622 32-1098): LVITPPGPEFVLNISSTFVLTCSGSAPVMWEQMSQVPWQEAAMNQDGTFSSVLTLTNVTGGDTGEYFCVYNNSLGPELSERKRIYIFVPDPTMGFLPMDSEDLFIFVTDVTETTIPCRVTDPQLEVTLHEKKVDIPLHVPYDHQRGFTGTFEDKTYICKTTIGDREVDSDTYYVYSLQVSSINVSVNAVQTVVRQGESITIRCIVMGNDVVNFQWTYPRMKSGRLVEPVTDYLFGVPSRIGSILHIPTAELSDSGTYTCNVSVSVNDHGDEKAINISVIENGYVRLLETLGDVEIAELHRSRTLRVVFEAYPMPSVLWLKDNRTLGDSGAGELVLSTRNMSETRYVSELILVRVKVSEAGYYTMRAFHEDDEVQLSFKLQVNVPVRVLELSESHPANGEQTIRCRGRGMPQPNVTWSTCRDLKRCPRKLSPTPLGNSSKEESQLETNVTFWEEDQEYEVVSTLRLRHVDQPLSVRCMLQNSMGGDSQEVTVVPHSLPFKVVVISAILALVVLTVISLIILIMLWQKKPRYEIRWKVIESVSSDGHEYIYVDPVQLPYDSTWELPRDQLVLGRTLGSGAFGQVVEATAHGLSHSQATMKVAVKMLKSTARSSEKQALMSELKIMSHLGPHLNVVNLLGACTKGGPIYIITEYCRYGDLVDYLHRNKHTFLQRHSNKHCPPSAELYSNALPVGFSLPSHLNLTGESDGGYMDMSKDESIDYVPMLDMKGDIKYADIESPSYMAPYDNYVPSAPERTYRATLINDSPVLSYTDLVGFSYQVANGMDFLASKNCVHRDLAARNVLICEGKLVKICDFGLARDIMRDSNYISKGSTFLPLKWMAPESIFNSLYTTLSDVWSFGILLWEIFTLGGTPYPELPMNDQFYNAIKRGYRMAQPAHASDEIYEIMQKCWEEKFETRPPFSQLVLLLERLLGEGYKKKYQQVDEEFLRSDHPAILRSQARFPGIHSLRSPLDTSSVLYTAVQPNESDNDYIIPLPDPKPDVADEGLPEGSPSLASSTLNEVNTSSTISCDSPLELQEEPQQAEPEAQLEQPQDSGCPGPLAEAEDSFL
Protocol: According to the same manner as in Example 5, PRb-CN01-rabbit Fc (50 nM) and PRb-CN01, control antibody, PRb-CN32 bispecific antibody scFv-Cκ-scFv (1 μM) were cultured on NIH3T3 cells for 1 hour. After washing, it was reacted with FITC-anti rabbit Fc antibody (172-1506, KPL, Gaithersburg, Maryland, USA) at 4° C. for 1 hour. After washing, it was classified and analyzed with a FACS Canto II instrument (BD Biosciences, San Jose, CA, USA). 10,000 cells were identified for each measurement. The results were analyzed by FlowJo (Tree Star, Ashland, OR, USA) (FIG. 19b).

[2] = biological target: T1, mPDGFR-β; test: Cross-species enzyme immunoassay, mPDGFR-β; type: binding; conditions: 100 nM; FIG. 17
Protocol: (§1) 100 ng of hPDGFR-β, mPDGFR-β, rhesus PDGFR-β (90215-C02H, Sino Biological Inc. Beijing, China), cynomolgus monkey PDGFR-β, Sus scrofa PDGFR-β-Fc chimera or TNF-α receptor extracellular domain-human Fc fusion protein was coated with 4° C. temperature O/N. After blocking the wells, sequential culture of the anti-hPDGFR-β scFv-Cκ-scFv fusion protein and the HRP conjugated anti-human Cκ antibody was followed in the same manner as in Example 3.
(§2) FIG. 17 is a graph showing an experiment of the cross-species reaction of the bispecific antibody against the anti-hPDGFR-β antibody according to the present invention. On the microtiter plates coated with hPDGFR-β, mPDGFR-β, Rhesus PDGFR-β, Cynomolgus monkey PDGFR-β, Sus scrofa PDGFR-β and control Fc coated, the bispecific antibody containing anti-hPDGFR-β antibody according to the present invention (100 nM) was reacted and the amount of bound bispecific antibody was measured using HRP conjugated anti-human Cκ antibody and TMB.

[3] = system: Cynomolgus monkey PDGFR-β; test: Cross-species enzyme immunoassay, Cynomolgus monkey PDGFR-β; type: binding; conditions: 100 nM; FIG. 17
Chain of Cynomolgus monkey PDGFR-β (as listed by the source): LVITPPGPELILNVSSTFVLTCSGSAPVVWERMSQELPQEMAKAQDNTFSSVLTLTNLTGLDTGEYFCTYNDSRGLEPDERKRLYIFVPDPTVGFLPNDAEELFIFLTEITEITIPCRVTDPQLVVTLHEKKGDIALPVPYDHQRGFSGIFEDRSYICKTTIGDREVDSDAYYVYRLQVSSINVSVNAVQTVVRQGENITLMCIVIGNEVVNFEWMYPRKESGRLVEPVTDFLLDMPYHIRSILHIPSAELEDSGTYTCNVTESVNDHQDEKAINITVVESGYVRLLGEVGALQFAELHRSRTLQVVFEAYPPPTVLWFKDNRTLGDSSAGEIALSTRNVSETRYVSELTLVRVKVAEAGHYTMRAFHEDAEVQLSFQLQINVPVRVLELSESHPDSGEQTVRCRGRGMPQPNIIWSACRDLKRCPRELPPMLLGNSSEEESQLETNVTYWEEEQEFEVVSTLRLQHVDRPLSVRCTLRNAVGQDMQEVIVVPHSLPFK
Protocol: as §1, §2

[4] = system: Sus scrofa PDGFR-β; test: Cross-species enzyme immunoassay, Sus scrofa PDGFR-β; type: binding; conditions: 100 nM; FIG. 17
Chain of Sus scrofa PDGFR-β (as listed by the source): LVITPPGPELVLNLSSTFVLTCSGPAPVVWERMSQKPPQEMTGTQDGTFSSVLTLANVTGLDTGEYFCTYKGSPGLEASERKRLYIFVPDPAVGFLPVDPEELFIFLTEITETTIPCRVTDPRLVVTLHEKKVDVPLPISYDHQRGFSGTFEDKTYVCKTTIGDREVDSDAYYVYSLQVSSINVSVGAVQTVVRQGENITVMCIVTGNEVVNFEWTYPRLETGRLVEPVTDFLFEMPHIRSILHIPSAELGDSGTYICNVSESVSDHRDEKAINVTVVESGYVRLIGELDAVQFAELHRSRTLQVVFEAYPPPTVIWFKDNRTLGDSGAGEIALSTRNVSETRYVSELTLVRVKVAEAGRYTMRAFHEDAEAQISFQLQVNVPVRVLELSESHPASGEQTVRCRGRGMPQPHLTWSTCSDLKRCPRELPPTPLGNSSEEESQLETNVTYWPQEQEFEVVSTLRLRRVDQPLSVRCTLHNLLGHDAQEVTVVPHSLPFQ
Protocol: as §1, §2

[5] = biological target: T3, human pericyte cells expressing hPDGFR-β (Homo sapiens, UniProt P09619); test: Flow cytometry binding to human pericyte cells expressing hPDGFR-β; conditions: 100 nM antibody, FIG. 13b
T3 construct: host or cells: human pericyte cells
T3 sequence (P09619 33-1106): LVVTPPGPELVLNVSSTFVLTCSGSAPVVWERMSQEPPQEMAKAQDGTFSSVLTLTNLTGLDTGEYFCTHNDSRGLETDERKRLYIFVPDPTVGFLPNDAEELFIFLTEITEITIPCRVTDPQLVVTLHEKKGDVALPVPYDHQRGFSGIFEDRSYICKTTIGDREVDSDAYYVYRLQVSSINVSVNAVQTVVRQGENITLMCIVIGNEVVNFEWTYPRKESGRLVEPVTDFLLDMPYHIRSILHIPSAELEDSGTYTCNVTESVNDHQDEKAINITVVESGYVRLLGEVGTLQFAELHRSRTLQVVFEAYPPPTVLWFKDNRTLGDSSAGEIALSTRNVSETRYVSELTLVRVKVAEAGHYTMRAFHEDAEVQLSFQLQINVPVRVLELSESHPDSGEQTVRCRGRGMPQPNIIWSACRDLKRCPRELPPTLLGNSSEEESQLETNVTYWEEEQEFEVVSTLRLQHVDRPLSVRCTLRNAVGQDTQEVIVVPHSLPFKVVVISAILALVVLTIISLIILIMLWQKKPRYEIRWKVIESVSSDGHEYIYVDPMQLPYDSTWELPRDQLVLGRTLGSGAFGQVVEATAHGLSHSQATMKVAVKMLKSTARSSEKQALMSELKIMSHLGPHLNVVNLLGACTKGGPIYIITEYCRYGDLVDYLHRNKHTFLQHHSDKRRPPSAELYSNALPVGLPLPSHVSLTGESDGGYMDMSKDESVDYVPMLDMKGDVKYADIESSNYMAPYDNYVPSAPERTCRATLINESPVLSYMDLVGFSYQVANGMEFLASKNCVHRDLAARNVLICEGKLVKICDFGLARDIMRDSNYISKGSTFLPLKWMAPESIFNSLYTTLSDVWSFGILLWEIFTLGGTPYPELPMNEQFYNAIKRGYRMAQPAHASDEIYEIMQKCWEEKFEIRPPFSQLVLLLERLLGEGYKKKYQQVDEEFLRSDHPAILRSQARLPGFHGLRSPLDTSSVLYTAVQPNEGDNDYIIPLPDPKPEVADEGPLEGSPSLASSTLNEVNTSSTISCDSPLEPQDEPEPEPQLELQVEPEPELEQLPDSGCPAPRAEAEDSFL
Protocol: Human pericyte cells were cultured at 4° C. for 1 hour using the bispecific antibody of scFv-Cκ-scFv fusion protein (100 nM) under two different conditions with or without hPDGF-BB-biotin (100 nM, BT220; R&D systems). The cells were washed 4 times with flow cytometry buffer and cultured with allophycocyanin (APC)-anti-human Cκ antibody (clone TB28-2; BD Biosciences, San Jose, CA, USA) and streptavidin-phycoerythrin (PE) (12-4317-87; eBioscience, ThermoFisher). After washing, it was classified and analyzed with a FACS Canto II instrument (BD Biosciences, San Jose, CA, USA). 10,000 cells were used for each measurement, and the results were analyzed by FlowJo (Tree Star, Ashland, OR, USA).

[6] = system: A-431 cells; test: Cytotoxicity in A-431 cells not expressing hPDGFR-β; type: cell-based; conditions: complex with cot-duo (DAR4); FIG. 16
Protocol: FIG. 16 is a graph showing that cytotoxicity assays of bispecific antibody related with anti-hPDGFR-β antibody complexed with cot-duo complexes on the cells not expressing hPDGFR-β. A-431 cells were treated with anti-hPDGFR-β x cotinine fusion protein and cot-duo (DAR4). The cellular ATP levels were measured to determine relative cell viability. Bispecific anti-mCD154 x cotinine scFv-Cκ-scFv fusion protein was used as a negative control. DMSO was used as a vehicle control of cot-duo. Results are shown as the mean±SD acquired from three repetitive experiments.
All of the anti-hPDGFR-β x cotinine scFv-Cκ-scFv fusion proteins had not higher toxicity than the control antibody anti-mCD154 x cotinine scFv-Cκ-scFv fusion protein (FIG. 16). Therefore, as a result of anti-proliferative analysis result, the bispecific antibody/cot-duo complex had higher cytotoxicity in the human pericyte cell lines expressing hPDGFR-β, compared to the control anti-mCD154 x cotinine scFv-Cκ-scFv, but there was no difference in cytotoxicity in A-431 not expressing hPDGFR-β, compared to the control anti-mCD154 x cotinine scFv-Cκ-scFv.

[7] = biological target: PDGFR-β (Homo sapiens, UniProt P09619); test: Enzyme immunoassay on hPDGFR-β-Fc chimera coated plate; type: binding; set-up: made in house; conditions: 100 nM; FIG. 17
Chain of PDGFR-β (P09619 33-531): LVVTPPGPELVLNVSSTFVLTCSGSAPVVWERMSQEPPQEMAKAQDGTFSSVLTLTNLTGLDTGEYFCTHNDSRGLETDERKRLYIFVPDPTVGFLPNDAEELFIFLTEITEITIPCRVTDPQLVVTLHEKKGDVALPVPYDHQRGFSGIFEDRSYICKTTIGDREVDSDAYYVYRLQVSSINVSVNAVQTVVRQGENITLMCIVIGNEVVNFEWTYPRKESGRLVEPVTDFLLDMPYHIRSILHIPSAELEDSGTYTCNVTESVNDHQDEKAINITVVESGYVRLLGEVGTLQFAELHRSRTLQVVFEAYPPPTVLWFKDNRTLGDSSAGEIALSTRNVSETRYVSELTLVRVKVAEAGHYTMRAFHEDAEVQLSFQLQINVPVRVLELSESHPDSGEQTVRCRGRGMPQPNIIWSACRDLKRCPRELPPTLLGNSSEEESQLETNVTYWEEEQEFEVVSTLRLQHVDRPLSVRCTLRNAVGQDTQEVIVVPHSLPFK
Protocol: 100 ng of hPDGFR-β-Fc chimera in the coating buffer or extracellular region of TNF-α receptor-human Fc fusion protein was coated on a microtiter plate at 4° C. O/N. Each well was blocked with 150 μL of 3% (w/v) BSA (bovine serum albumin) in PBS as a blocking agent at 37° C. for 1 hour. After treatment with various concentrations of bispecific antibodies of scFv-Cκ-scFv fusion protein (0.01 nM-1 μM), the analysis was performed in the same protocol of the concentration-dependent binding ability of anti-mPDGFRR-β scFv-Cκ-scFv fusion protein.
as §1

Molecule | inhibition of binding of PRb-CN01-rabbit Fc to mPDGFR-β on the cell surface [1] | cross-species binding, mPDGFR-β [2] | cross-species binding, Cynomolgus monkey PDGFR-β [3] | cross-species binding, Sus scrofa PDGFR-β [4] | cell binding in the presence of hPDGF-BB-biotin [5] | toxicity in A-431 cells compared to control anti-mCD154 x cotinine scFv-Cκ-scFv [6] | cross-species binding, hPDGFR-β [7]
PRb-CN01: anti-mPDGFR-β chicken scFv clone (VH SEQ ID NO 7, VL SEQ ID NO 8), tested as scFv-Cκ-anti-cotinine scFv bispecific antibody (antibody, V domains shown, VH of PRb-CN01; VL of PRb-CN01) VH: AVTLDESGGGLQTPGGALSLVCKASGFTFSDRAMHWVRQAPGKGLEWVGLITNTGGSTNYGAAVKGRATISRDNGQSTVRLQLNNLRAEDTGTYYCTRGVGSWAHGGRIDAWGHGTEVIVSS VL: LTQPSSVSANPGETVKITCSGGSGSYGWFQQKSPGSAPVTVIYSNNQRPSDIPSRFSGSKSGSTNTLTITGVQAEDEAIYYCGTRDSSYVGIFGAGTTLTVL | inhibited |  |  |  |  |  | 
PRb-CN16: anti-hPDGFR-β scFv clone (VH SEQ ID NO 39, VL SEQ ID NO 40), tested as scFv-Cκ-anti-cotinine scFv bispecific antibody (antibody, V domains shown, VH of PRb-CN16; VL of PRb-CN16) VH: AVTLDESGGGLQTPGTALSLVCKASGFTFSSFNMAWVRQAPGKGLEFVGEISNTAGSTFYAPAVKGRATISRDNGQSTVRLQLNNLRAEDTAIYYCAKAAGTCYSHSCTGYIDAWGHGTEVIVSSTS VL: LTQPSSVSANPGETVKITCSGSSSSYGWYQQKSPGSAPVTLIYENNQRPSNIPSRFSGSKSGSTGTLTITGVQAEDEAVYYCGNADRSNSAGTFGAGTTLTVL |  | confirmed to bind | confirmed to bind | confirmed to bind | able to bind to hPDGFR-β in the presence of hPDGF-BB-biotin | equivalent cytotoxicity | confirmed to bind
PRb-CN32: anti-hPDGFR-β scFv clone (VH SEQ ID NO 47, VL SEQ ID NO 48), tested as scFv-Cκ-anti-cotinine scFv bispecific antibody (antibody, V domains shown, VH of PRb-CN32; VL of PRb-CN32) VH: AVTLDESGGGLQTPRGTLSLVCKASGFTFSSFNMFWVRQAPGKGLEFVAGISTTGRYTGYGSAVQGRGTISRDNGQSTVRLQLNNLRAEDTGTYYCAKSAGSTYSYWDSDAGLIDAWGHGTEVIVSSTS VL: LTQPSSVSANLGETVKITCSGGSNAGSYYYGWYQQKSPGSAPVTVIYSNNQRPSDIPSRFSGSTSGSTSTLTITGVQVDDEAVYFCGSGDSSSIAAFGAGTTLTVL | inhibited | confirmed to bind | confirmed to bind | confirmed to bind | able to bind to hPDGFR-β in the presence of hPDGF-BB-biotin | equivalent cytotoxicity | confirmed to bind
PRb-CN26: anti-hPDGFR-β scFv clone (VH SEQ ID NO 55, VL SEQ ID NO 56), tested as scFv-Cκ-anti-cotinine scFv bispecific antibody (antibody, V domains shown, VH of PRb-CN26; VL of PRb-CN26) VH: AVTLDESGGGLQTPGGGLSLVCKASGFTFSDRGIHWVRQAPGKGLEWVAGIGNTGSYTAYAPAVKGRATISRDNGQSTVRLQLNNLRAEDTATYYCAKRGFMDAGGIDAWGHGTEVIVSSTS VL: LTQPSSVSANPGETVKITCSGGGSYAGSYYYGWYQQKSPGSAPVTVIYDNTNRPSNIPSRFSGSLSGSTDTLTITGVQAEDEAVYFCGGYDGISDTGIFGAGTTLTVL |  | confirmed to bind | confirmed to bind | confirmed to bind | able to bind to hPDGFR-β in the presence of hPDGF-BB-biotin | equivalent cytotoxicity | confirmed to bind
